For the assay, the target named is Hemagglutinin of A/Wisconsin/67/2005 (H3N2) overexpressed on 3T3 cells (Influenza A virus A/Wisconsin/67/2005 (H3N2)). The experiment in a line: cell-based or functional assay.

B1: H1H14612N2 (antibody, V domains shown)
VH: EVQLVESGGGLVKPGGSLRLSCAASGFSFSGFSMNWVRQAPGKGLEWVSSISTSGNYMYYADSVKGRFTISRDNAKKSFSLQMNSLRAEDSAIYYCARGGGYNWNLFDYWGQGSLVTVSS
VL: EIVLTQSPGTLSLSPGERATLSCRASQSLNSNYLAWYQQKPGQAPRLLIYGASSRATGIPDRFSGSGSGADFTLTISRLESEDFAVYYCQQYGNSPLTFGGGTKVEIK
On to B1, for which the EC50, ADCC with human donor PBMCs (CytoTox-Glo) was found to be 0.176 nM and the EC50, FcγRIIIA activation in the ADCC-Glo reporter bioassay (Promega) was 0.688 nM.

These data come from US20210371505A1.
